Test [1] has as its target T1, human LAP-TGFB2 Fc fusion (human).
T1 construct: also called human LAP-TGFβ2; LAP-TGFβ isoform 2
Kind of test: SPR. The source says:
(§1) This Example describes the isoform specificity of the yeast display mutants to bind to human LAP-TGFβ isoforms 1, 2, and 3 using surface plasmon resonance. A Series S CM4 sensor chip (GE Healthcare, catalog BR100534) was immobilized with an anti-human Fc capture antibody following the kit protocol (GE Healthcare, catalog BR100839) on a Biacore T200 instrument with 1× HBS-EP+ (Teknova, catalog H8022). […] Binding specificity experiments between human LAP-TGFβ isoforms 2 and 3 and yeast display mutants were performed in 1× HBS-EP+ with 0.1 mg/mL BSA at 25° C. Approximately 20-40 RU amounts of human LAP-TGFβ2 and 3 were captured to the anti-human Fc surface followed by injection of 1000 nM Fab including a negative control 0 nM Fab. The binding data were double referenced by subtraction of signal from a reference (capture surface only) flow cell and the negative control 0 nM Fab injection. Binding rate constants were determined by fitting the data with a 1:1 binding model (GE Healthcare Biacore T200 Evaluation software 3.0).

Test [2] has as its target T2, human LAP-TGFB3 Fc fusion (human).
T2 construct: also called human LAP-TGFβ3; LAP-TGFβ isoform 3
The test can be described thus: SPR.
Source text: as §1

Test [3] addresses T3, human LAP-TGFB1 Fc fusion (human).
T3 construct: also called human LAP-TGFβ1-Fc; human LAP-TGFβ-Fc isoform 1
Kind of test: SPR, antigen-Fc captured, Fab analyte.
Source text: as §1

Residue numbers refer to the chain shown, from its start. In names and notes the source's numbering stands.

T1 sequence (chain, as listed by the source limits assumed): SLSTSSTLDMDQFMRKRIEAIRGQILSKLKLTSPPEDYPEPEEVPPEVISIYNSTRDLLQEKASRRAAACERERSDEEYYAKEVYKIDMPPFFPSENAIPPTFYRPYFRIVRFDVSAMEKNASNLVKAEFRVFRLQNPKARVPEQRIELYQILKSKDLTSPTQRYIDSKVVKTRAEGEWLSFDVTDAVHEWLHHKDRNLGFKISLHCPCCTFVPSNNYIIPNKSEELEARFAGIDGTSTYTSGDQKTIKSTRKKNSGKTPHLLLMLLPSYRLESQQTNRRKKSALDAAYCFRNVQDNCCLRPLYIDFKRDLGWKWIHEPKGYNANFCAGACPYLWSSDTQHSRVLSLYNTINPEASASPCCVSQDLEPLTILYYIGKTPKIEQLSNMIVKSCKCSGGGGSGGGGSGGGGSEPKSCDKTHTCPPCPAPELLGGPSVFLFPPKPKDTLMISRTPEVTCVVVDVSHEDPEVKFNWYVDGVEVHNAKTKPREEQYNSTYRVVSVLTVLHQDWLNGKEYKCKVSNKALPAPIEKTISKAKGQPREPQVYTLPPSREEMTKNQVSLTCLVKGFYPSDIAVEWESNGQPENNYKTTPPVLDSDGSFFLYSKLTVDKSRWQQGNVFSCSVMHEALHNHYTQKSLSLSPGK
T3 sequence (chain, as listed by the source limits assumed): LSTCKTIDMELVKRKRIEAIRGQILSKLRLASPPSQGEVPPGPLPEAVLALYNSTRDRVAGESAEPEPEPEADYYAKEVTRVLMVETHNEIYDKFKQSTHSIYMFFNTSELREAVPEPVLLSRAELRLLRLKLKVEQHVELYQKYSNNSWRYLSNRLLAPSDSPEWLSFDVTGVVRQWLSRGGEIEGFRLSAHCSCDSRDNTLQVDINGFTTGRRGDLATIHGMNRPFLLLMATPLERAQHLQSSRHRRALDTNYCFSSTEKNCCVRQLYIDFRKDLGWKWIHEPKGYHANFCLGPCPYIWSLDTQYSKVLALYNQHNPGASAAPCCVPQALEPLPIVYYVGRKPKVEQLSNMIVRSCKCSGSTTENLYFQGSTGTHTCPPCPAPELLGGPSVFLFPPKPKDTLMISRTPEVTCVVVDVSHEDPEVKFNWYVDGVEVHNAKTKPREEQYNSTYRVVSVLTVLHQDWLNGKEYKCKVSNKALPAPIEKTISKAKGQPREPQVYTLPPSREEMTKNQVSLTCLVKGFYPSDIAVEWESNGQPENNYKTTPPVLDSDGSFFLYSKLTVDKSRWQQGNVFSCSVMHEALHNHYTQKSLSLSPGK
T2 sequence (chain, as listed by the source limits assumed): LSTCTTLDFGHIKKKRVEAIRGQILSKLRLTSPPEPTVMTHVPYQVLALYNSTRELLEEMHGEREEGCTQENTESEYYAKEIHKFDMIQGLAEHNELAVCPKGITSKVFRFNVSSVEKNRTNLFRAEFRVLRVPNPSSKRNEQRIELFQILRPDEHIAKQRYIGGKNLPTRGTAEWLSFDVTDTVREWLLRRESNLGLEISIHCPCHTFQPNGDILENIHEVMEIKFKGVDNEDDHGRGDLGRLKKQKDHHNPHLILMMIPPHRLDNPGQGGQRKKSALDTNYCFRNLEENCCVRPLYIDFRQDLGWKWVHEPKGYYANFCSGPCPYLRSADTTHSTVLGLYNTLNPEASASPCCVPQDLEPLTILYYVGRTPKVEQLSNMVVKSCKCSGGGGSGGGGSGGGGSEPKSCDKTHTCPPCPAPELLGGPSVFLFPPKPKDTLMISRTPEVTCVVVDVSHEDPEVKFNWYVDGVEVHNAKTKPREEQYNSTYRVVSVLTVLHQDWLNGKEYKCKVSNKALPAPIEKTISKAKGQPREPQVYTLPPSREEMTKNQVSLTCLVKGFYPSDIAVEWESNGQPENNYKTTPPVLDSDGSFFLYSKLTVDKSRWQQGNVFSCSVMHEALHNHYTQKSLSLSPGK

B1: 65BJN (Fab, V domains shown)
VH: EVQLVQSGAEVKKPGASVKVSCKASGYTFTSYDLHWVRQAPGQGLEWMGRIDPQSGGIKYAQKFQGRATLTVDTSTSTAYMELSRLRSDDTAVYYCARYDQGGYFDVWGQGTLVTVSS
VL: DIQMTQSPSSLSASVGDRVTITCRASQDIYYYLNWYQQKPGKAVKLLIYYTSRLHSGVPSRFSGSGSGTDYTLTISSLQPEDFATYFCQQGDTLPWTFGQGTKLEIKR
notes: also called VH W33D M34L W99Y Y101Q / VL T30Y N31Y (65BJN)
As to B1, in test [1], the binding result is listed as “no binding (tested: 1000 nM Fab)”. The binding result in test [2] is on record as “no binding (tested: 1000 nM Fab)”. In test [3], the “Fold improvement in KD” value was determined as 10 fold, the Kd is 8120 pM, the off-rate (koff) was 0.0238 s⁻¹ and the kon was 2.94e+06 M⁻¹ s⁻¹.

B2: 77BJN (Fab, V domains shown)
VH: B1 VH with L34M, I58V, Y99W, Q101Y
VL: B1 VL with Y31N, R53V, T93E
notes: also called VH W33D I58V / VL T30Y R53V T93E (77BJN)
For B2, the binding result in test [1] is given as “no binding (tested: 1000 nM Fab)”. In addition, the binding result in test [2] is listed as “no binding (tested: 1000 nM Fab)”. In test [3], the “Fold improvement in KD” value came out at 1540 fold, the Kd was 51.7 pM, the off-rate (koff) amounted to 0.00027 s⁻¹ and the kon was determined as 5.22e+06 M⁻¹ s⁻¹.

B3: 75BJN (Fab, V domains shown)
VH: B1 VH with S31K, L34M, S55D, I58F, Y99W, Q101Y
VL: B1 VL with Y30F, Y31N, R53Y, T93E
notes: Label says VL T30Y but the printed LCDR1 reads F at 30; also called VH S31K W33D S55D I58F / VL T30Y R53Y T93E (75BJN)
For B3, the binding result in test [1] and in test [2] was “no binding (tested: 1000 nM Fab)” in each case. In addition, the “Fold improvement in KD” value in test [3] stood at 1180 fold.

B4: 74BJN (Fab, V domains shown)
VH: B1 VH with S31Y, Y99W, Q101Y
VL: B1 VL with Y31N, T93D, L94I
notes: also called VH S31Y W33D M34L / VL T30Y T93D L94I (74BJN)
As for B4, the binding result in test [1] is “no binding (tested: 1000 nM Fab)”. Besides, in test [2], the binding result was “no binding (tested: 1000 nM Fab)”. Further, in test [3], the “Fold improvement in KD” value worked out at 196 fold, the Kd is 408 pM, the koff was 0.00181 s⁻¹ and the kon is 4.45e+06 M⁻¹ s⁻¹.

B5: 72BJN (Fab, V domains shown)
VH: B1 VH with S31Q, L34M, Q101Y
VL: B1 VL with Y31N, R53I
notes: also called VH S31Q W33D W99Y / VL T30Y R53I (72BJN)
On to B5, for which the binding result in test [1] was “no binding (tested: 1000 nM Fab)”. Moreover, the binding result in test [2] was “no binding (tested: 1000 nM Fab)”. Besides, in test [3], the “Fold improvement in KD” value was 130 fold, binding was put at a Kd of 615 pM, the dissociation rate constant (koff) was found to be 0.00298 s⁻¹ and the kon turned out to be 4.85e+06 M⁻¹ s⁻¹.

B6: 73BJN (Fab, V domains shown)
VH: B1 VH with L34M, Y99W, Q101Y
VL: B1 VL with Y31N
notes: also called VH W33D / VL T30Y (73BJN)
For B6, in test [1], the binding result was “no binding (tested: 1000 nM Fab)”. Besides, in test [2], the binding result is given as “no binding (tested: 1000 nM Fab)”. Also, in test [3], the “Fold improvement in KD” value stood at 133 fold, the dissociation constant (Kd) came to 601 pM, the koff stood at 0.0031 s⁻¹ and the kon was 5.15e+06 M⁻¹ s⁻¹.

B7: 80BJN (Fab, V domains shown)
VH: B1 VH with L34M, K59R, Y99W, Q101Y, Y104Q
VL: B1 VL with Y31N, R53I
notes: also called VH W33D K59R Y104Q / VL T30Y R53I (80BJN)
Take B7: the binding result in test [1] is recorded as “no binding (tested: 1000 nM Fab)”. In addition, the binding result in test [2] is on record as “no binding (tested: 1000 nM Fab)”. Besides, in test [3], the “Fold improvement in KD” value was found to be 13200 fold; the affinity, expressed as Kd, was 6.07 pM; the off-rate (koff) turned out to be 2.52e-05 s⁻¹; the on-rate (kon) came out at 4.15e+06 M⁻¹ s⁻¹.

B8: 71BJN (Fab, V domains shown)
VH: B1 VH with L34M, S55T, G57D, Y99W, Q101Y, Y104Q
VL: B1 VL with Y31N, R53G
notes: also called VH W33D S55T G57D Y104Q / VL T30Y R53G (71BJN)
For B8, in test [1], the binding result is listed as “no binding (tested: 1000 nM Fab)”. Further, the binding result in test [2] is “no binding (tested: 1000 nM Fab)”. In addition, in test [3], the “Fold improvement in KD” value stood at 3200 fold, binding was put at a Kd of 25.1 pM, the koff turned out to be 6.8e-05 s⁻¹ and the kon was 2.71e+06 M⁻¹ s⁻¹.

B9: 82BJN (Fab, V domains shown)
VH: B1 VH with D33Y, L34M, H35N, I58V, Y99W, D100H, Q101Y, Y104Q
VL: B1 VL with Y31N, R53G
notes: also called VH W33Y H35N I58V D100H Y104Q / VL T30Y R53G (82BJN)
Take B9: in test [1], the binding result is “no binding (tested: 1000 nM Fab)”. Besides, the binding result in test [2] is reported as “no binding (tested: 1000 nM Fab)”. Also, in test [3], the “Fold improvement in KD” value is 8610 fold, the Kd was found to be 9.28 pM, the koff stood at 2.6e-05 s⁻¹ and the kon amounted to 2.81e+06 M⁻¹ s⁻¹.

B10: 76BJN (Fab, V domains shown)
VH: B1 VH with S31Y, L34M, Q54Y, S55D, G57D, Y99W, Q101Y
VL: B1 VL with Y31N, R53L, T93E
notes: also called VH S31Y W33D Q54Y S55D G57D / VL T30Y R53L T93E (76BJN)
Take B10: the binding result in test [1] was “no binding (tested: 1000 nM Fab)”. Also, the binding result in test [2] is reported as “no binding (tested: 1000 nM Fab)”. Further, in test [3], the “Fold improvement in KD” value amounted to 768 fold, the Kd came to 104 pM, the off-rate (koff) was determined as 0.000186 s⁻¹ and the association rate constant (kon) came out at 1.8e+06 M⁻¹ s⁻¹.

B11: 78BJN (Fab, V domains shown)
VH: B1 VH with L34M, K59R, Y99W, Q101Y
VL: B1 VL with Y31N, R53N, T93E
notes: also called VH W33D K59R / VL T30Y R53N T93E (78BJN)
As for B11, in test [1], the binding result was “no binding (tested: 1000 nM Fab)”. Moreover, in test [2], the binding result is given as “no binding (tested: 1000 nM Fab)”. For the same molecule, in test [3], the “Fold improvement in KD” value turned out to be 1120 fold, the dissociation constant Kd was 71.3 pM, the koff stood at 0.000393 s⁻¹ and the on-rate constant (kon) was determined as 5.52e+06 M⁻¹ s⁻¹.

B12: 68BJN (Fab, V domains shown)
VH: B1 VH with D33W, L34M, H35Q, S55D, G57D, Q101Y
VL: B1 VL with Y31N, R53V
notes: also called VH H35Q S55D S57D W99Y / VL T30Y R53V (68BJN)
With B12, in test [1], the binding result is given as “no binding (tested: 1000 nM Fab)”. In addition, the binding result in test [2] is listed as “no binding (tested: 1000 nM Fab)”. For the same molecule, in test [3], the “Fold improvement in KD” value came out at 4200 fold, binding was put at a Kd of 19.1 pM, the dissociation rate constant (koff) turned out to be 8.34e-05 s⁻¹ and the kon was 4.36e+06 M⁻¹ s⁻¹.

B13: 81BJN (Fab, V domains shown)
VH: B1 VH with S31E, L34M, K59R, Y99W, Q101Y, Y104Q, V107A
VL: B1 VL with Y31N, R53V
notes: also called VH S31E W33D K59R Y104Q V107A / VL T30Y R53V (81BJN)
Regarding B13, the binding result in test [1] was “no binding (tested: 1000 nM Fab)”. The binding result in test [2] is listed as “no binding (tested: 1000 nM Fab)”. In addition, in test [3], the “Fold improvement in KD” value came to 12700 fold; the affinity, expressed as Kd, was 6.29 pM; the koff stood at 2.56e-05 s⁻¹; the kon stood at 4.08e+06 M⁻¹ s⁻¹.

B14: 79BJN (Fab, V domains shown)
VH: B1 VH with L34M, S55D, G57D, I58V, Y99W, Q101Y
VL: B1 VL with Y31N, R53G, T93E
notes: also called VH W33D S55D S57D I58V / VL T30Y R53G T93E (79BJN)
On to B14, for which, in test [1], the binding result is on record as “no binding (tested: 1000 nM Fab)”. Besides, the binding result in test [2] is “no binding (tested: 1000 nM Fab)”. In test [3], the “Fold improvement in KD” value came to 3630 fold, the Kd turned out to be 22 pM, the koff amounted to 0.000128 s⁻¹ and the on-rate (kon) was determined as 5.84e+06 M⁻¹ s⁻¹.

B15: 66BJN (Fab, V domains shown)
VH: B1 VH with L34M, S55T, Y99W, Q101H
VL: B1 VL with Y31N, L94Q
notes: also called VH W33D S55T Y101H / VL T30Y L94Q (66BJN)
Consider B15, for which the binding result in test [1] is “no binding (tested: 1000 nM Fab)”. Besides, in test [2], the binding result was “no binding (tested: 1000 nM Fab)”. For the same molecule, in test [3], the “Fold improvement in KD” value was 13 fold, the Kd came to 6210 pM, the dissociation rate constant (koff) was 0.0131 s⁻¹ and the association rate constant (kon) was determined as 2.11e+06 M⁻¹ s⁻¹.

B16: 67BJN (Fab, V domains shown)
VH: B1 VH with L34M, Y99W, Q101Y
VL: B1 VL with Y31N, R53V
notes: also called VH W33D / VL T30Y R53V (67BJN)
Take B16: the binding result in test [1] is listed as “no binding (tested: 1000 nM Fab)”. Also, the binding result in test [2] is “no binding (tested: 1000 nM Fab)”. In test [3], the “Fold improvement in KD” value is 512 fold, binding was put at a Kd of 156 pM, the off-rate (koff) is 0.000762 s⁻¹ and the kon amounted to 4.87e+06 M⁻¹ s⁻¹.
